We go through 29 sequences from the supplement of paper PMC9170038.

The data set deals with MS2 coat protein. In words: apparent KD of MS2 coat protein; designed switch direction (-1 OFF switch, 1 ON switch): -1; higher = weaker reporter binding. A digest of the protocol:
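Three titration conditions were used: no input, 200 uM small-molecule ligand, and an oligonucleotide input. In each, SNAP-549-labelled MS2 coat protein was raised from 0.7 or 1.5 nM, doubling, to 3 µM over designed RNA switches transcribed on Illumina chips by stalled E. coli RNA polymerase. Curve fits of normalised cluster fluorescence gave values whose per-design median over clusters is the apparent KD.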

Where [1] appears, read: Eterna round: R95, input ligand: microRNA oligo, concentration not stated.
The mark [2] stands for this setting: input ligand: microRNA oligo, concentration not stated.
Setting [3] is: Eterna round: R95, input ligand: FMN 200 uM.
The mark [4] stands for this setting: Eterna round: R95, input ligand: none.

For the sequence “GGGUGACAUGAGGAUCACCCAUGUCAGGAUAUGAUACUAUGUACUUCGGUACAUAGUAUCAGAAGGGACAUAAA [Ex1-3: 15] (puzzle: Exclusion 1)”, the “apparent KD of MS2 coat protein” value under setting [1] amounted to 103 nM.
Regarding “GGGUGCAGGCUGAGAUCCUACAUGAGGAUCACCCAUGUGGUCCGGUGACGUGAGUCACCGGACUUAGCUCGUCUUGU [salish99_S_TOV1_R5_007] (Eterna round: R97, puzzle: Sensor, turn-off variant 1)”, the “apparent KD of MS2 coat protein” value runs as follows: (input ligand: FMN 200 uM) 162 nM; (input ligand: none) 192 nM.
In the case of “GGGUGCAGGCUGCGGUCCUACAUGAGGAUCACCCAUGUGGUCCGGUGGCGUGGGUCGCCGGACUUGGCUCGUCUUGU [salish99_S_TOV1_R5_014] (Eterna round: R97, puzzle: Sensor, turn-off variant 1)”, the “apparent KD of MS2 coat protein” value stood at 91.2 nM (input ligand: FMN 200 uM) and 99.3 nM (input ligand: none).
For “GGGUGCGAGCUAAGAUCCUACAUGAGGAUCACCCAUGUGGUCCGGUGACGUGAGUCACCGGACUUAGCUCGUCUUGU [salish99_S_TOV1_R5_005] (Eterna round: R97, puzzle: Sensor, turn-off variant 1)”, the “apparent KD of MS2 coat protein” value turned out to be 26.3 nM (input ligand: FMN 200 uM) and 29.2 nM (input ligand: none).
Consider “GGUAAAGGCCGAGGAUAUCGGAAAGGAAGUGUACGAGAAGGCGGCAAAAGAACAUGAGGAUCACCCAUGUGGGCCGAUCUUCCG [16th something] (Eterna round: R96, puzzle: Exclusion NG 1)”, for which the “apparent KD of MS2 coat protein” value runs as follows: (input ligand: FMN 200 uM) 23.6 nM; under setting [2], 16.8 nM; (input ligand: none) 18 nM.
As to “GGUAAGCUAGGAUAUGCUUUGGGAAAGCAUUCCUUCGAUAAACUUGAGGAUCACCCAAGUAGAAGGAGCUUCCC [salish99_ex2_r4_017] (Eterna round: R97, puzzle: Exclusion 2)”, the “apparent KD of MS2 coat protein” value is, setting by setting: (input ligand: FMN 200 uM) 11.2 nM; (input ligand: none) 11 nM.
With “GGUACUAACACGAAAGUGUUAGUACUAUAAGCUUGUGUUACAUGAGGAUCACCCAUGUCCUCAUAAGCUCGUCUUAU [JL-sv3-2.16 mat747 mod] (puzzle: Sensor v3, turn-off variant 2)”, the “apparent KD of MS2 coat protein” value under setting [3] amounted to 86.7 nM, the “apparent KD of MS2 coat protein” value under setting [1] amounted to 19.6 nM and the “apparent KD of MS2 coat protein” value under setting [4] was 108 nM.
As for “GGUACUAACACGAUAGUGUUAGUACUAUAAGCUUGUGUUACAUGAGGAUCACCCAUGUCCUCAUAGGCUCGUCUUAU [Mat - Sensor v3 - Turn-off var 2 - D86] (puzzle: Sensor v3, turn-off variant 2)”, the “apparent KD of MS2 coat protein” value reads like this: under setting [3], 169 nM; under setting [1], 30.8 nM; under setting [4], 166 nM.
For “GGUACUAUCACCUGAGUGGUAGUGCCACAAGCUUGUGAUACAUGAGGAUCACCCAUGUCCUCAUUUGCUCGUCUUAU [JL-sv3-2.28 JL mod] (puzzle: Sensor v3, turn-off variant 2)” the same measures were 289 nM, 1080 nM and 343 nM.
Consider “GGUACUCAAAGAGUACCAAUACGAACAUGAGGAUCACCCAUGUAGGAUAUGCUACUCAAAGAGUAGCAGAAGGACAUGAACCCU [Far Half Aptamer v7] (Eterna round: R96, puzzle: Exclusion NG 3)”, for which the “apparent KD of MS2 coat protein” value was 571 nM (input ligand: FMN 200 uM), 38.3 nM under setting [2] and 61.8 nM (input ligand: none).
“GGUAGAGUGGUAGGAUAUCCGACUGAAACAGACGGAGAAGGACCACAGUCACUGGGUCCACUUAUAAUUAACAAUAAAUCUACC [pwkr exNG1 F6.2] (Eterna round: R96, puzzle: Exclusion NG 1)”: the “apparent KD of MS2 coat protein” value (input ligand: FMN 200 uM) was 326 nM, the “apparent KD of MS2 coat protein” value under setting [2] worked out at 120 nM and the “apparent KD of MS2 coat protein” value (input ligand: none) was 263 nM.
The corresponding values for “GGUAGAGUGGUAGGAUAUCCGUCUGUUUCAGUCGGAGAAGGACCACAGUCACUGGGUCCUAAUAUCAUGGAGACCUGAUCUACC [pwkr exNG1 F6.12] (Eterna round: R96, puzzle: Exclusion NG 1)” are 2200 nM, 316 nM and 284 nM.
As to “GGUAGGUGUGACUUGGGUGACAUGAGGAUCACCCAUGUCACAAGCUUGUUGCUCGCCUUGUAAUUAACCCAUGUCAC [LRO Sensor-off var1-29 mod of Stov1-13-A1 by Brourd] (Eterna round: R97, puzzle: Sensor, turn-off variant 1)”, the “apparent KD of MS2 coat protein” value runs as follows: (input ligand: FMN 200 uM) 21.5 nM; (input ligand: none) 21.5 nM.
As for “GGUAUACAUGAGGAUCACCCAUGUCAGGAUAUGGUAUCCUGUGCCGAAAGGCACAGGUCCAGAAGGGACGAUAG [AK-MS2ROC-r4-exclusion1-5.2] (Eterna round: R97, puzzle: Exclusion 1)”, the “apparent KD of MS2 coat protein” value is, setting by setting: (input ligand: FMN 200 uM) 109 nM; (input ligand: none) 91.7 nM.
On to “GGUAUGGCCACAGGAUAUUGAGCCACAUGAGGAUCACCCAUGUGAGGACGUAGAAUCGCCUGGCCCAAGAAGGGUGAAGCCCAU [Eternabot solution 4] (Eterna round: R96, puzzle: Exclusion NG 2)”, for which the “apparent KD of MS2 coat protein” value was 17.1 nM (input ligand: FMN 200 uM), 13.1 nM under setting [2] and 28 nM (input ligand: none).
For the sequence “GGUCAAGAACAGAACCGCGCUGCCAUUGACCGCUCAUUUACAUGAGGAUCACCCAUGUUUUUUGCUUGUCUUGUUAC [Beusdieson] (puzzle: Sensor v3, turn-off variant 2)”, the “apparent KD of MS2 coat protein” value was 16.2 nM under setting [3], 89.9 nM under setting [1] and 18.7 nM under setting [4].
In the case of “GGUCAAGAACAGCUCCGCGCUGCCCUCGACCGCUCAUUUACAUGAGGAUCACCCAUGUUUUUUGCUUGUCUUGUUAC [Usvetive] (puzzle: Sensor v3, turn-off variant 2)”, the “apparent KD of MS2 coat protein” value worked out at 16.9 nM under setting [3], 91.8 nM under setting [1] and 16.5 nM under setting [4].
The corresponding values for “GGUCAAGAGCAGCUCCGCGCUGCCAUUGACCGCUCAUUUACAUGAGGAUCACCCAUGUUUUUUGCUCGUCUUAUUAC [Somabi] (puzzle: Sensor v3, turn-off variant 2)” are 18.5 nM, 53.2 nM and 18.8 nM.
“GGUCAGACGGUAGGAUAUCCAUAUCGAGUGACCCUUUCAUAACAUGAGGAUCACCCAUGUCGGUGGGAGAAGGGCCGUACGGCG [salish99_ExNG02_R04_001] (Eterna round: R96, puzzle: Exclusion NG 2)”: the “apparent KD of MS2 coat protein” value was determined as 146 nM (input ligand: FMN 200 uM), 70.4 nM under setting [2] and 63.2 nM (input ligand: none).
For “GGUCAGAUGGUAGGAUAUCCAUAUCGAGUGACCCUUUCAUAACAUGAGGAUCACCCAUGUCGGUGGGAGAAGGGUCGUACGGCG [salish99_ExNG02_R04_020] (Eterna round: R96, puzzle: Exclusion NG 2)” the same measures were 21.3 nM, 16.4 nM and 23.6 nM.
As for “GGUCAGAUGGUAGGAUAUCUAUAUCGAGUGACCCUUUCAUAACAUGAGGAUCACCCAUGUCGGUGGGAGAAGGGCCGUACGGCG [salish99_ExNG02_R04_012] (Eterna round: R96, puzzle: Exclusion NG 2)”, the “apparent KD of MS2 coat protein” value runs as follows: (input ligand: FMN 200 uM) 41.1 nM; under setting [2], 30.6 nM; (input ligand: none) 40.2 nM.
For the sequence “GGUCAGCUAGGAUAUACAUGAGGAUCACCCAUGUACUGACCCAUGCGGUAGUCCGCAUGUAGAAGGAGCAAAAU [Cebiin] (Eterna round: R97, puzzle: Exclusion 3)”, the “apparent KD of MS2 coat protein” value was 11.3 nM (input ligand: FMN 200 uM) and 18.2 nM (input ligand: none).
The corresponding values for “GGUCAUCAAGUCAGGAUAUCGUCUGGUCGGUCUGGCGAGAAGGGACAUGAGGAUCACCCAUGUCGACUCAUCAG [Ex4 #11] (Eterna round: R97, puzzle: Brourd's mod of Exclusion 4)” are 29.2 nM and 17.6 nM.
As to “GGUCCACAUGAGGAUCACCCAUGUUAGGAUAUCUCCUGCCUCCUCACUGGAGGCAGACAGAGAAGGAACAUCAA [Eratxe] (puzzle: Exclusion 1)”, the “apparent KD of MS2 coat protein” value came to 78.3 nM under setting [3], 22 nM under setting [1] and 23.9 nM under setting [4].
Regarding “GGUCCACGAGGAUAUCGAUUAUAGUACAUGAGGAUCACCCAUGUUGUCCAGGUUUCGAUUCGAGAAGGCGUGGGUU [LRO-Ex5-02] (puzzle: Exclusion 5)”, under setting [1], the “apparent KD of MS2 coat protein” value worked out at 51.8 nM.
As to “GGUCCGAGUGUGAGGAUAUGCUGGUCCUUGGAUCAGCAGAAGGCACAUGAGGAUCACCCAUGUGGUGUCGGACC [Mat - Exclusion 4 - Eli Mod - D32] (Eterna round: R97, puzzle: Brourd's mod of Exclusion 4)”, the “apparent KD of MS2 coat protein” value by setting is: (input ligand: FMN 200 uM) 140 nM; (input ligand: none) 932 nM.
For “GGUCCGUGUGUGAGGAUAUGCUGGUCCUUGGAUCAGCAGAAGGCACAUGAGGAUCACCCAUGUGGUGUCGGACC [Mat - Exclusion 4 - Eli Mod - D33] (Eterna round: R97, puzzle: Brourd's mod of Exclusion 4)” the same measures were 24.6 nM and 361 nM.
For “GGUCGACAUGAGGAUCACCCAUGUCAGGAUAUCGUCACUGGAGCUUCGGCUCCAGUGACGAGAAGGGAUAUGAU [E1/17-A1] (Eterna round: R97, puzzle: Exclusion 1)” the same measures were 39.1 nM and 34.2 nM.
On to “GGUCGGCGAGGAUAUACAUGAGGAUCACCCAUGUGAUAGAGUGCACGCGUACGUGUACGUAGAAGGCGCUGACG [JL-ex3-3.28 salish99 mod] (puzzle: Exclusion 3)”, for which the “apparent KD of MS2 coat protein” value under setting [3] turned out to be 26.4 nM, the “apparent KD of MS2 coat protein” value under setting [1] was 13.2 nM and the “apparent KD of MS2 coat protein” value under setting [4] was determined as 12.5 nM.
